# Target: Ep-CAM antigen (human pan-carcinoma antigen) (human) (UniProt P16422)
# Assay: antibody binding to HT29 adenocarcinoma cells after 15 minute incubation; drug-treated against control cells
# Chain of UniProt P16422 (P16422 24-314): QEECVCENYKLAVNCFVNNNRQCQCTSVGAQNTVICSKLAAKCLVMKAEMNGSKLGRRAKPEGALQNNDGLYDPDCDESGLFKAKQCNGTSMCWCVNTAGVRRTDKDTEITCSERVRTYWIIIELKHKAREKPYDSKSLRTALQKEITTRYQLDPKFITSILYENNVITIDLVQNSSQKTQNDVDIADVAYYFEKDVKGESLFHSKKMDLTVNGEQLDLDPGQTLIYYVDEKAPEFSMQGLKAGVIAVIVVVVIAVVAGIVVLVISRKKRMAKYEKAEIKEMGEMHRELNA
binder,measurement,value
"Panorex (17-1A mouse monoclonal antibody) (antibody, INN chains, looked up, V domains shown) VH: QVQLQQSGAELVRPGTSVKVSCKASGYAFTNYLIEWVKQRPGQGLEWIGVINPGSGGTNYNEKFKGKATLTADKSSSTAYMQLSSLTSDDSAVYFCARDGPWFAYWGQGTLVTVSA VL: NIVMTQSPKSMSMSVGERVTLTCKASENVVTYVSWYQQKPEQSPKLLIYGASNRYTGVPDRFTGSGSATDFTLTISSVQAEDLADYHCGQGYSYPYTFGGGTKLEIK",increase in antibody binding (cells treated with Navelbine plus Cisplatin against control cells),34%
same,increase in antibody binding (cells treated with Taxol against control cells),8%
